Measured values: the supplement of paper PMC10567573

B1: ATE1 (parent)
chain: DYFPSEDFYRCGYCKNESGSRSNG
B2: FADS1 (parent)
chain: LNFQIEHHLFPTMPRHNYHKVAPL

Variants of: B1
Experiment: protein stability index of a GFP-peptide fusion (GPS, HEK-293T) (PSI 1-6); higher = more stable
Conditions: c terminus: a fixed tail appended
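Further: lentivirally expressed fusions sorted by FACS into six bins by GFP to DsRed ratio, PSI derived from sequencing read proportions per bin multiplied by bin number.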

Protein stability index of substitutions, site by site:
C11: W 4.12; N 3.84; H 4.4; V 3.73; S 3.54; Y 3.42; R 3.9; K 4.17; Q 4.36; A 3.73
Y13: C 2.18; I 2.91; L 2.03; A 2.76; K 3.5; N 3.83; Q 3.52; R 2.23
D1: P 2.35; V 2.58; H 2.58; R 1.74; T 2.24; Q 1.89; F 1.84; Y 3.1; N 2
G24: M 1.89; S 1.62; I 2.34; T 2.35; R 2.5; N 2.09; Y 2.13; C 1.93; L 2.15; V 1.75; D 2.26; E 2.67
S5: K 2.02; H 1.98; I 1.88; Q 2.41; T 2.15; L 1.61; A 2.19; G 2.17; D 2.46; C 1.52
P4: K 1.92; V 1.18; Q 2.77; S 3.09; T 2.26; H 1.29; L 2.53; N 2.16; I 1.45; M 2.59; W 1.08; F 1.43; D 2.07
E17: A 1.74; S 1.83; L 2.17; V 1.4; P 1.37; H 2.14; W 1.78; Q 1.9; N 2; T 2.77; K 2.33; G 1.96
S22: V 2.12; W 2.33; T 1.82; A 1.85; C 2.17; G 2.04; M 3.37; I 2.54; D 2.6; H 2.01
E6: Y 1.74; T 2.94; L 1.85; A 1.81; S 1.8; Q 1.92; D 1.92; W 2.04
G12: A 3.25; K 2.68; E 3.04; M 2.77; R 4.05; L 2.63; I 2.84; W 3.35; C 2.01; P 1.93; N 2.69
N23: M 1.52; E 2.29; H 2.16; P 1.91; S 2.32; T 2.1; F 1.26
K15: T 1.85; V 2.18; G 1.95; C 2.17; D 2.74; Y 2.89; L 1.82; I 2.18; H 1.64
S20: A 2.83; E 2.5; N 1.79; V 2.25; I 2.01; H 2.1; L 1.33; P 2.36; F 1.72; Q 1.94; D 2.25; T 1.88
Y9: D 2.42; Q 2.14; L 2.01; F 1.92; S 2.36; A 2.99; N 2.18; H 1.82; C 3.12
D7: P 2.71; L 2.29; K 2.53; M 1.83; Q 3.11; W 1.7; S 2.24; I 1.11; T 2.15; R 1.93; F 1.17; A 1.63
N16: L 1.53; P 2.23; M 2.62; W 1.41; A 3.01; I 1.74; D 2.79; R 2.1; C 1.47
C14: E 4.6; R 3.8; K 3.65; M 4.25; F 3.44; P 3.53; Y 3.04; T 4.36; D 4.47; A 4.24; I 3.97; H 4.16; G 3.81; V 4.1
F3: Q 3.12; R 2.58; A 2.45; I 2.27; W 2.85; G 3.35; L 1.83; H 1.8
Y2: W 1.24; N 2.36; T 2.63; E 2.63; D 2.53; P 2.64; R 4.56; K 2.38; M 1.36; S 2.44; G 2.56
G19: D 2.45; A 1.61; V 2.14; Q 2.9; C 1.93; T 2.04; K 1.95; M 1.38; Y 1.6; P 2.57
F8: N 2.16; C 2.54; Y 1.93; A 2.32; M 2.56; V 3.1
S18: H 1.95; A 2.67; V 2.17; F 3.12; P 2.2; E 2.53; N 1.35; L 1.84
R10: L 1.69; K 2.44; G 2.35; V 3.04; E 2.6; C 1.43; A 2.71; M 2.21; F 1.98; P 2.47; S 2.2
R21: M 2.08; E 2.44; Y 1.79; F 2.39; L 1.58; G 2.79; N 2.47; W 2.03; Q 2.67; C 2.83; D 3.09

Variants of: B2
Experiment: as above
Conditions: c terminus: a fixed tail appended

Protein stability index, by site and new letter:
P23: D 1.33; G 2.97; W 2.27; A 2.81; M 2.06; Y 1.79; Q 2.63; N 2.09; S 1.88; C 1.88; R 1.69; K 1.54; E 2.21; L 2.4; I 2.42
L24: H 2.27; M 1.81; E 2.33; T 1.56; D 2.03; N 2.15; Y 3.02; V 1.5; R 1.51; A 1.71; P 2.3; F 2.15; C 2.52; W 2.03; K 1.79; Q 2.02; G 2.35; S 1.15; I 3.69
V21: A 1.32; K 1.83; Q 1.46; M 2.5; G 2.38; C 2.38; N 1.58; W 2.14; D 2.41; R 1.7; L 2.24; P 2.39; E 2.32; I 3.07; H 1.92; Y 1.94; S 1.98; F 2.85; T 2.23
A22: N 1.69; R 1.99; I 3.37; Y 2.21; D 1.92; K 1.89; G 1.05; L 2.05; H 1.89; S 2.91; E 1.85; F 1.78; W 2.34; M 3.28; V 2.82; Q 2.06; T 2.09; C 1.65; P 2.1
H19: V 2.8; Q 2; W 3.52; Y 2.58; S 2.35; R 1.88
K20: E 1.94; N 2.58; V 1.2; R 2.76; P 2.71; C 2.2; Q 3.36; H 1.46; I 2.65; D 2.29; L 3.03; G 1.99; T 1.79; M 2.3; A 1.9; Y 3.23
